Assay results published in patent US20240377400A1, “METHODS FOR TREATING A SUBTYPE OF COLORECTAL CANCER” (Cornell University, priority 2021, published 2024).

What was measured:
[1] = tested on: tumors from Prkci^fl/fl Prkcz^fl/fl Villin-cre (DKO) mice; assay: scRNAseq and IHC of DKO mouse intestinal tumors treated with PVHA or Galunisertib; type: in vivo
Procedure: FIG. 3A illustrates the experimental design: Prkci^fl/flPrkcz^fl/fl (DKO) mice were treated either with PVHA (0.0375 mg/Kg twice per week) or Galunisertib (10 mg twice daily) as described. Intestinal tumors were analyzed by scRNAseq.
To identify the mechanism of action of PVHA in the treatment of CMS4 tumors, scRNAseq was performed using 10× Genomics Chromium platform on tumors from Prkci^fl/fl Prkcz^fl/fl Villin-cre (DKO) mice (n=5) treated with PVHA for 14 weeks (n=3), as compared to those treated with Galunisertib (GAL) for 17 weeks (n=3), as shown in experimental design (FIG. 3A). Unsupervised clustering identified tumor and normal epithelial cells as well as stromal and immune cells with selective markers for each population (FIGS. 3B-3C). […] Among tumor clusters (0,4,6), a cell population with transcriptomic similarities to the recently identified “revival stem cells” (RSC; high Clu) in the vehicle treated tumors was identified (FIGS. 3F-3G).

[2] = tested on: MTO-sgPrkci/sgPrkcz tumors; assay: Subcutaneous MTO-sgPrkci/sgPrkcz tumors in syngeneic C57BL/6J mice treated with PEGPH20; type: in vivo, mouse
Procedure: FIGS. 8F-8J illustrate subcutaneous injection of sgPrkci/Prkcz and sgC MTOs in WT mice. Mice were treated twice a week with Veh or PEGPH20 0.0375 mg/kg for 3 weeks (MTOs: sgC n=10, sgC PEGPH20-treated n=10, sgPrkci/Prkcz n=10, and sgPrkci/Prkcz PEGPH20-treated n=8). Experimental design (F); Immunohistochemistry (IHC) for HA, Masson's trichrome, and αSMA (G) staining quantification (H); tumor volume (I) and tumor weight (J). Scale bars, 100 μm.
For colonoscopy-guided orthotopic injection in the colon submucosa using mouse tumor organoids (MTOs), a 10 μl organoid suspension of equivalent to 40-50 MTOs admixed with 10% Matrigel (Corning) was directly injected into the colonic submucosa of 7 weeks old C57BL/6 mice. 4 weeks after implantation, tumors were collected and analyzed histologically. Orthotopic tumor sizes were measured by caliper after mice were sacrificed. For xenografts using MTOs, a 100 μl cell suspension of equivalent to 0.5×10^6 cells of sgPrkci/Prkcz or sgC MTOs admixed with 30% Matrigel (Corning) was directly injected subcutaneously into the right flank of 7 weeks old C57BL/6 mice. Tumors were allowed to grow for 14 days, and mice were randomly divided to receive vehicle, n=20, or PEGPH20 (0.0375 mg/kg, 2 days each week) via retro-orbital injection, n=18. Tumors were measured twice a week. Mice were euthanized three weeks after treatment and tumors were analyzed histologically. For the combination therapy of anti-PD-L1 (Clone B7-H1, Bioxcell) antibody and PEGPH20, mice were injected with a dose of 5 mg/kg (body mass) of anti-PD-L1 antibody in combination with PEGPH20 (n=15) twice a week for 4 weeks until they were sacrificed.
To address the potential role of HA stromal accumulation in the tumorigenesis of intestinal mesenchymal tumors in vivo, mouse tumor organoids (MTO) with mutations in Apc, Trp53, Kras, and Tgfbr2 (Tauriello et al., 2018) and with deletion of Prkci and Prkcz by CRISPR/Cas9 were characterized. MTO-sgPrkci/sgPrkcz recapitulated the observed phenotype in human organoids showing in vitro upregulation of Has1, Has2, and Has3 transcripts, increased expression of HA, and enrichment in EMT and TGFβ signaling signatures (FIGS. 8A-8E). […] Next, the impact of depleting HA on tumorigenesis was tested. To that end, MTO-sgPrkci/sgPrkcz or MTO-sgC were subcutaneously transplanted into syngeneic C57BL/6J mice and treated with a low dose of clinical-grade pegylated hyaluronidase (PEGPH20; 0.0375 mg/Kg), equivalent to a human dose evaluated in clinical trials, or with vehicle (FIG. 8F).

B1: PEGPH20: a PEGylated version of human recombinant PH20 hyaluronidase; clinical-grade pegylated hyaluronidase (Halozyme Therapeutics) (protein, UniProt P38567 36-490, looked up)
Hyaluronidase PH-20: LNFRAPPVIPNVPFLWAWNAPSEFCLGKFDEPLDMSLFSFIGSPRINATGQGVTIFYVDRLGYYPYIDSITGVTVNGGIPQKISLQDHLDKAKKDITFYMPVDNLGMAVIDWEEWRPTWARNWKPKDVYKNRSIELVQQQNVQLSLTEATEKAKQEFEKAGKDFLVETIKLGKLLRPNHLWGYYLFPDCYNHHYKKPGYNGSCFNVEIKRNDDLSWLWNESTALYPSIYLNTQQSPVAATLYVRNRVREAIRVSKIPDAKSPLPVFAYTRIVFTDQVLKFLSQDELVYTFGETVALGASGIVIWGTLSIMRSMKSCLLLDNYMETILNPYIINVTLAAKMCSQVLCQEQGVCIRKNWNSSDYLHLNPDNFAIQLEKGGKFTVRGKPTLEDLEQFSEKFYCSCYSTLSCKEKADVKDTDAVDVCIADGVCIDAFLKPPMETEEPQIFYNASPSTLS
modifications: PEGylated
numbers of inferred interactions of tumor epithelial cells with immune cells ([1]; CellphoneDB, as compared to GAL treatment): higher
Cd81+Pdgfra− fibroblast around the Crypt, IHC ([1]; DKO intestine): induction
Trophocyte-like fibroblast cluster (Cd34, Cd81) ([1]; scRNAseq): strongly increased
Cd8 T cells, cell type proportion ([1]; scRNAseq T cells): increase
proportion of Treg ([1]; scRNAseq T cells): reduce
fibroblast clusters associated with human CRC (Grem1/Sfrp1, Igf1/Cxcl14), CMS4 subtype (Sfrp2) and tumor initiation (Ptgs2/Spp1) ([1]; scRNAseq cell-type proportion): complete elimination
tumor cells, cell percentage analysis ([1]; scRNAseq epithelial cells, compared to vehicle or GAL-treated): clear reduction
tumoral goblet population ([1]; scRNAseq goblet cells): reduction
T cells, cell-type proportion ([1]; scRNAseq immune cells): increase
myeloid cells, cell-type proportion ([1]; scRNAseq immune cells): decrease
TAN1 (anti-tumoral neutrophils) ([1]; scRNAseq myeloid cells): increased
TAN2 (pro-tumoral neutrophils) ([1]; scRNAseq myeloid cells): reduced
proportion of dendritic cells ([1]; scRNAseq myeloid cells): increased
percentage of stromal and immune cells ([1]; scRNAseq, PVHA 0.0375 mg/Kg twice per week, 14 weeks, Galunisertib 10 mg twice daily, 17 weeks): decreased
mature goblets proportion ([1]; scRNAseq, as compared to GAL): increased
Lgr5 Stem Cells population ([1]; scRNAseq, population lost in the DKO intestine): recovered
number of stromal cells ([1]; scRNAseq, without apparent changes in cell-type proportions): reduced
Clu IHC ([1]; tumor area): decrease
immature goblets, IHC double staining for Alcian blue and Lyz1 ([1]; tumor area): reduction
signatures related to invasion, tumor progression, and desmoplasia (EMT, myogenesis, angiogenesis, TGFβ signaling, stromal activation, CMS4 subtype) ([2]; GSEA of Quant-seq, treated versus Veh): decrease
IFN and allograft rejection signatures ([2]; GSEA of RNAseq, allografts from MTO-sgPrkci/sgPrkcz): enrichment
tumor volume and weight ([2]; PEGPH20 0.0375 mg/Kg twice a week, 3 weeks): sensitive
desmoplastic phenotype: expression of HA, collagen, and αSMA+ ([2]; PEGPH20 0.0375 mg/Kg twice a week, 3 weeks, IHC): reverted
